In patent publication US20140087995A1 (published 2014):
Numbered stars: 1 amine (or outer) side, 2 acyl side, 3 side chain; on linkers, the order of the positions; unused ones are H or OH. Bridge positions count the residues as written; N and C are the ends. Side chains are listed from the residue outwards. Ends that are not written are not given here. * marks the point of attachment. C20 diacid = O=C(O)CCCCCCCCCCCCCCCCCCC(=O)*; γGlu = O=C(O)[C@H](CCC(=O)[*:2])N[*:1]; AEEA = NCCOCCOCC(=O)O

B1: N^ε1-[2-[2-[2-[[(4S)-4-carboxy-4-(19-carboxynonadecanoylamino)butanoyl]amino]ethoxy]ethoxy]acetyl]-[Arg17,Pro21,Pro27,Pro31,His35]-h-amylin (peptide)
peptide: K([AEEA-γGlu-C20 diacid])CNTATCATQRLANFLRHSSPNFGAIPSSTPVGSHTY-NH2
modifications: disulfide 2-7; N-terminus assumed
SMILES: CC[C@H](C)[C@H](NC(=O)[C@H](C)NC(=O)CNC(=O)[C@H](Cc1ccccc1)NC(=O)[C@H](CC(N)=O)NC(=O)[C@@H]1CCCN1C(=O)[C@H](CO)NC(=O)[C@H](CO)NC(=O)[C@H](Cc1c[nH]cn1)NC(=O)[C@H](CCCNC(=N)N)NC(=O)[C@H](CC(C)C)NC(=O)[C@H](Cc1ccccc1)NC(=O)[C@H](CC(N)=O)NC(=O)[C@H](C)NC(=O)[C@H](CC(C)C)NC(=O)[C@H](CCCNC(=N)N)NC(=O)[C@H](CCC(N)=O)NC(=O)[C@@H](NC(=O)[C@H](C)NC(=O)[C@@H]1CSSC[C@H](NC(=O)[C@@H](N)CCCCNC(=O)COCCOCCNC(=O)CC[C@H](NC(=O)CCCCCCCCCCCCCCCCCCC(=O)O)C(=O)O)C(=O)N[C@@H](CC(N)=O)C(=O)N[C@@H]([C@@H](C)O)C(=O)N[C@@H](C)C(=O)N[C@@H]([C@@H](C)O)C(=O)N1)[C@@H](C)O)C(=O)N1CCC[C@H]1C(=O)N[C@@H](CO)C(=O)N[C@@H](CO)C(=O)N[C@H](C(=O)N1CCC[C@H]1C(=O)N[C@H](C(=O)NCC(=O)N[C@@H](CO)C(=O)N[C@@H](Cc1c[nH]cn1)C(=O)N[C@H](C(=O)N[C@@H](Cc1ccc(O)cc1)C(N)=O)[C@@H](C)O)C(C)C)[C@@H](C)O
notes: also called compound 57
B2: N^ε1-[2-[2-[2-[[(4S)-4-carboxy-4-(19-carboxynonadecanoylamino)butanoyl]amino]ethoxy]ethoxy]acetyl]-[Arg17,Pro21,Pro27,Pro34,His35]-h-amylin (peptide)
peptide: K([AEEA-γGlu-C20 diacid])CNTATCATQRLANFLRHSSPNFGAIPSSTNVGPHTY-NH2
modifications: disulfide 2-7; N-terminus assumed
SMILES: CC[C@H](C)[C@H](NC(=O)[C@H](C)NC(=O)CNC(=O)[C@H](Cc1ccccc1)NC(=O)[C@H](CC(N)=O)NC(=O)[C@@H]1CCCN1C(=O)[C@H](CO)NC(=O)[C@H](CO)NC(=O)[C@H](Cc1c[nH]cn1)NC(=O)[C@H](CCCNC(=N)N)NC(=O)[C@H](CC(C)C)NC(=O)[C@H](Cc1ccccc1)NC(=O)[C@H](CC(N)=O)NC(=O)[C@H](C)NC(=O)[C@H](CC(C)C)NC(=O)[C@H](CCCNC(=N)N)NC(=O)[C@H](CCC(N)=O)NC(=O)[C@@H](NC(=O)[C@H](C)NC(=O)[C@@H]1CSSC[C@H](NC(=O)[C@@H](N)CCCCNC(=O)COCCOCCNC(=O)CC[C@H](NC(=O)CCCCCCCCCCCCCCCCCCC(=O)O)C(=O)O)C(=O)N[C@@H](CC(N)=O)C(=O)N[C@@H]([C@@H](C)O)C(=O)N[C@@H](C)C(=O)N[C@@H]([C@@H](C)O)C(=O)N1)[C@@H](C)O)C(=O)N1CCC[C@H]1C(=O)N[C@@H](CO)C(=O)N[C@@H](CO)C(=O)N[C@H](C(=O)N[C@@H](CC(N)=O)C(=O)N[C@H](C(=O)NCC(=O)N1CCC[C@H]1C(=O)N[C@@H](Cc1c[nH]cn1)C(=O)N[C@H](C(=O)N[C@@H](Cc1ccc(O)cc1)C(N)=O)[C@@H](C)O)C(C)C)[C@@H](C)O
notes: also called compound 58

What was measured:
[1] = biological target: T1, human amylin receptor (amylin 3(a) receptor: human calcitonin receptor plus RAMP-3) (human, UniProt P30988 25-474; O60896 24-148); test: SPA competition binding, displacement of 125I-rat amylin, membranes of BHK amylin 3(a)/CRE-luc cells
T1 construct: whole, on cells; functional assay (II)a used the whole cells; also called hAmylin-R; hAmylinR
T1 sequence (looked up) 1: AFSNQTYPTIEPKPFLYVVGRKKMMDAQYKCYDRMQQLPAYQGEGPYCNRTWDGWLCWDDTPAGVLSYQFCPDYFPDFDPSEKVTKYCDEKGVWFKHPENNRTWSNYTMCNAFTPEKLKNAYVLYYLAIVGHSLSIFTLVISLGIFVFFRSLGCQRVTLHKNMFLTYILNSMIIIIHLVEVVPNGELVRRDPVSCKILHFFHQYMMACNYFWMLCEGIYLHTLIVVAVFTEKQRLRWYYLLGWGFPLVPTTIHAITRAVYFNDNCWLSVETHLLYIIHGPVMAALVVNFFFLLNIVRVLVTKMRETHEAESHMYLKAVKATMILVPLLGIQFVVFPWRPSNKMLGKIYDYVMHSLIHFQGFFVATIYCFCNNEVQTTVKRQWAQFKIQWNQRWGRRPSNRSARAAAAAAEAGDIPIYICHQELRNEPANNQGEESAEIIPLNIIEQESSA
T1 sequence (looked up) 2: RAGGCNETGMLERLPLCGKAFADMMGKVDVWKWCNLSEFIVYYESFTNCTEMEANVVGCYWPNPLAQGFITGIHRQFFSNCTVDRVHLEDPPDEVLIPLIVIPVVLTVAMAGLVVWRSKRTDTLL
Experimental: The binding assay was performed using scintillation proximity assay (SPA) beads (RPNQ0001) from PerkinElmer and cell membranes from the Amylin 3(a)/CRE-luc cells (as described in Assay (II)) were used. Membranes were prepared in the following way; the cells were rinsed with PBS and incubated with Versene for approximately 5 min before harvesting. The cells were flushed with PBS and the cell-suspension was centrifuged for 5 min at 1000 rpm. Cells were homogenized (ultrathurrax) in a buffer containing 20 mM Na-HEPES and 10 mM EDTA (pH 7.4) and centrifuged at 20.000 rpm for 15 min. The resulting pellet was resuspended, homogenized and centrifuged (20.000 rpm, 15 min) in a buffer containing 20 mM Na-HEPES and 0.1 mM EDTA (pH 7.4, buffer 2). The resulting pellet was resuspended in buffer 2 and protein concentration was measured (BCA protein Assay, Pierce). The homogenate was kept cold during the whole procedure. The membranes were kept at −80° C. until use. The assay was performed in a 384 well Optiplate (PerkinElmer) in a total volume of 40 ul. Membranes were mixed with SPA beads. Final concentration of membranes 35 ng/μL final and SPA beads was 0.05 mg/well. Test-compounds were dissolved in DMSO and further diluted in assay buffer (50 mM Hepes, pH 7.4, 1 mM CaCl2, 5 mM MgCl₂, 0.1% OA and 0.02% Tween20). […] The final mixture was incubated with shaking at 400 rpm for 120 min at 25° C. prior to centrifugation (1500 rpm, 10 min). Samples were analyzed on TopCounter™ (Packard). The IC₅₀ was calculated using (one site binding competition analysis) GraphPad Prism5 as a measure of receptor affinity.

[2] = biological target: T1, human amylin receptor (amylin 3(a) …); test: cell-based or functional assay
[3] = biological target: T2, human calcitonin receptor (human, UniProt P30988 25-474); test: cell-based or functional assay
T2 sequence (looked up): T1 sequence (looked up) 1

Binder | IC50 [1] [nM] | Ratio hCT/hAmylin funct. [2] | hAmylin-R funct. EC50 (pM) [2] [pM] | hCTR funct. EC50 (pM) [3] [pM]
B1 | 0.115 | 35 | 89 | 3120
B2 | 0.088 | 21.9 | 47 | 1030
